These are literature values, as cited in article PMC10155966.

In data set [1] the target is LC8 (UniProt P63167).
Data set [2] concerns the target dynein intermediate chain (IC) (Rattus norvegicus) (UniProt Q63100). In words: ITC. Background: Isothermal titration calorimetry measures the heat released or taken up as one component is titrated into another.

pKd: −log10 of the molar value.

UniProt Q63100, sequence (Q63100 2-643): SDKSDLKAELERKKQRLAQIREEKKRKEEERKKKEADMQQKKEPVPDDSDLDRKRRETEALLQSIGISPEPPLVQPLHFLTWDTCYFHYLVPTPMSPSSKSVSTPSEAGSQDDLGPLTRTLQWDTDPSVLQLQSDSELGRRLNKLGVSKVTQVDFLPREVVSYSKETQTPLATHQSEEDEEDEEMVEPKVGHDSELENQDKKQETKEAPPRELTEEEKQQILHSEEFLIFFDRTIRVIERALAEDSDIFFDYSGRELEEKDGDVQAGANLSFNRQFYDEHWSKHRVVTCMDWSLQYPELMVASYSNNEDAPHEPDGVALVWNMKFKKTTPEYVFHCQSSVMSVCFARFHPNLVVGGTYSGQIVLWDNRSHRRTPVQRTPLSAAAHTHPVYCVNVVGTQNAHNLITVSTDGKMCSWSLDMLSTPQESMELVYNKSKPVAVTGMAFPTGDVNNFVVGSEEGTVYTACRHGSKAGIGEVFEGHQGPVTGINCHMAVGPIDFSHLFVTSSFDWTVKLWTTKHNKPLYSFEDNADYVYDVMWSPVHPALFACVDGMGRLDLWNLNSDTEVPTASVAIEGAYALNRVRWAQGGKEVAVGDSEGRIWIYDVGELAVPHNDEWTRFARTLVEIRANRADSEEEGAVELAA

Consider LC8 (from UniProt P63167), for which the pKd in data set [1] was 7.22.
Regarding NudE (from UniProt Q9ES39), the pKd in data set [2] is 5.64.

Broadly, the pKd is the Kd on a negative log10 scale, so that one unit is a factor of ten.
